Test [1] concerns the target EGFP-vinculin (UniProt P18206). The experiment in a line: FRET or BRET. (In general: BRET reads energy transfer from a luciferase to a nearby fluorophore.)
Test [2] addresses mTFP1-vinculin (UniProt P18206). The experiment in a line: FRET or BRET.

“RIAM-mScarlet (RIAM C-terminally tagged with mScarlet-I) (from UniProt Q7Z5R6 1-666) (natural protein)” showed an FRET efficiency in test [1] of 13.5.

On to “mScarlet-RIAM (RIAM N-terminally tagged with mScarlet-I) (from UniProt Q7Z5R6 1-666) (natural protein)”, for which the FRET efficiency in test [1] worked out at 16.4; in test [2], 20%.

For the origin of these results see paper doi:10.1101/2025.03.04.641466.
